Measurements taken from US20200277399A1.

Key:
2F5 antibody [1] = test: ELISA on coated 2F5; Fc variant 10 ug/ml
2F5 antibody [2] = test: ELISA on coated 2F5; Fc variant 0.00457247 ug/ml
2F5 antibody [3] = test: ELISA on coated 2F5; Fc variant 0.37037037 ug/ml
2F5 antibody [4] = test: ELISA on coated 2F5; Fc variant 0.01371742 ug/ml
2F5 antibody [5] = test: ELISA on coated 2F5; Fc variant 0.04115226 ug/ml
2F5 antibody [6] = test: ELISA on coated 2F5; Fc variant 1.11111111 ug/ml
2F5 antibody [7] = test: ELISA on coated 2F5; Fc variant 3.33333333 ug/ml
2F5 antibody [8] = test: ELISA on coated 2F5; Fc variant 0.12345679 ug/ml

Row | Substance | absorbance (2F5 antibody [1]) | absorbance (2F5 antibody [2]) | absorbance (2F5 antibody [3]) | absorbance (2F5 antibody [4]) | absorbance (2F5 antibody [5]) | absorbance (2F5 antibody [6]) | absorbance (2F5 antibody [7]) | absorbance (2F5 antibody [8])
1 | Fc_ELDKWA_BC (from UniProt P0DOX5 227-449) | 0.619 | 0.0133 | 0.047 | 0.0107 | 0.0197 | 0.091 | 0.232 | 0.0213
2 | Fc_ELDKWA_DE (from UniProt P0DOX5 227-449) | 1.25 | 0.0177 | 0.185 | 0.0283 | 0.038 | 0.495 | 0.846 | 0.0673
3 | Fc_ELDKWA_FG (from UniProt P0DOX5 227-449) | 1.4 | 0.012 | 0.297 | 0.0215 | 0.0365 | 0.706 | 1.32 | 0.108
